Assay results as given in article PMC6201271.

Molecular target: UvrDΔCys(A100C) labeled with Cy3 (E. coli) (UniProt P03018)
Assay: AUC

A stoichiometry N (MutL dimer per UvrD-Cy3 monomer) of 1 was found for “E. coli MutL protein (from UniProt P23367 1-615) (natural protein)” in this work.
